Experimental data reported in FireProtDB (doi:10.1074/jbc.m707838200).
Values joined by “and” are separate entries in the source; they are usually repeats but may differ in a detail not shown here. Equal values may be shown once.

B1: E114Q, Q9EYL5 (parent)
chain: MTKKLLTLFIVSMLILTACGKKESATTSSKNGKPLVVVYGDYKCPYCKELDEKVMPKLRKNYIDNHKVEYQFVNLAFLGKDSIVGSRASHAVLMYAPKSFLDFQKQLFAAQQDENKEWLTKELLDKHIKQLHLDKETENKIIKDYKTKDSKSWKAAEKDKKIAKDNHIKTTPTAFINGEKVEDPYDYESYEKLLKDKIK

Variants of: B1
Conditions: Staphylococcus aureus, pH 7, Thermal, CD, reversible: Yes, structure 3BCI, whole UniProt chain shown; for unfolding free energy: 25 °C, Hepes-NaOH 20 mM, NaCl 170 mM; for Tm / change of melting temperature, mutant - wild type (higher = more stable): Phosphate 100 mM

| Variant | unfolding free energy | Tm | change of melting temperature, mutant - wild type (higher = more stable) |
| --- | --- | --- | --- |
| E114Q | 6.13 kcal/mol | 74.2 °C | 2.3 °C |
| T171V | 8.19 kcal/mol and 8.42 kcal/mol | 71.8 °C and 73 °C | -0.7 °C and 1.1 °C |
